Results from patent US20190330277A1.
Where “and” joins values, the source holds several entries; their conditions need not be identical. Identical values can stand only once.

Experiments:
[1] = molecular target: RB94 dscav1T369C-T455C Long S190V; assay: ELISA, variant from culture supernatant on Ni-NTA plate
[2] = molecular target: 391-2_DS-Cav1-tzsc5; assay: as above
[3] = molecular target: 391-2-DS-Cav1_ sc9_T449C-V459C; assay: as above
[4] = molecular target: 391-2-DS-Cav1-sc9 99C-362C; assay: as above
[5] = molecular target: 391-2-DS-Cav1-sc9deleteFS 99C-362C; assay: as above
[6] = molecular target: RB94 site 0 hRSV bovSurf DS-Cav1 Long FdPL; assay: as above
[7] = molecular target: 391-2-DS-Cav1-sc9 99C-361C; assay: as above
[8] = molecular target: sc9-10_DS-CAV1_bRSV(RB94)_Fd_hp2_fp1_ig1; assay: as above
[9] = molecular target: 391-2-DS-Cav1-sc9 100C-362C; assay: as above
[10] = molecular target: RB94 site 0 hRSV bovSurf DS-Cav1-BZGJ9 Long FdPL; assay: as above
[11] = molecular target: RB94 hu/bov DS-CAV1 A149C-Y458C Long; assay: as above
[12] = molecular target: RB94 site 0 hRSV DS-Cav1-BZGJ9 Long FdPL; assay: as above
[13] = molecular target: RB94 DS-CAV1 T369C-T455C Long; assay: as above
[14] = molecular target: 391-2-DS-Cav1_ sc9_I28C-G464C; assay: as above
[15] = molecular target: 391-2-DS-Cav1_ sc9_I395C-A490C; assay: as above
[16] = molecular target: 391-2-DS-Cav1-BZGJ9_gyc5; assay: as above
[17] = molecular target: 391-2-DS-Cav1_ S398C-S485C; assay: as above
[18] = molecular target: RB94 sc9 DS-CAV1 N183GC-N428C L373R Long S190V; assay: as above
[19] = molecular target: 391-2-DS-Cav1-sc9deleteFS 100C-362C; assay: as above
[20] = molecular target: 391-2-DS-Cav1-BZGJ9_gyc6; assay: ELISA, variant from culture supernatant on Ni-NTA plate [continued]
[21] = molecular target: 391-2-DS-Cav1-BZGJ9; assay: as above
[22] = molecular target: 391-2-DS-Cav1-SC-IP-1; assay: as above
[23] = molecular target: sc9-10_DS-CAV1_bRSV(RB94)_Fd_(hRSV-leader)_ig1; assay: as above
[24] = molecular target: 391-2-DS-Cav1- F-SC_11R; assay: as above
[25] = molecular target: 391-2-DS-Cav1-IP-7; assay: as above
[26] = molecular target: 391-2-DS-Cav1-IP-2; assay: as above
[27] = molecular target: 391-2-DS-Cav1-BZGJ9_gyc10; assay: as above
[28] = molecular target: 391-2-DS-Cav1-BZGJ9_gyc4; assay: as above
[29] = molecular target: 391-2_DS-Cav1-tzsc9; assay: as above
[30] = molecular target: 391-2-DS-Cav1-BZGJ9deleteFS; assay: as above
[31] = molecular target: 391-2-DS-Cav1-BZGJ9_gyc3; assay: as above
[32] = molecular target: 391-2_DS-Cav1-tzsc4; assay: as above
[33] = molecular target: RB94 DS-CAV1 N70K S104F K117T; assay: as above
[34] = molecular target: 391-2_DS-Cav1-tzsc6; assay: as above
[35] = molecular target: 391-2_DS-Cav1-tzsc2; assay: as above
[36] = molecular target: 391-2-DS-Cav1-BZGJ9_gyc2; assay: as above
[37] = molecular target: sc9-10_DS-CAV1_bRSV(RB94)_Fd_fp1_ig1; assay: as above
[38] = molecular target: RB94_sc9-10 DS-CAV1 L373R; assay: as above
[39] = molecular target: bRSV RB94 DSCav1 (bovine respiratory syncytial virus, strain RB94) (UniProt P23728)

## motavizumab (antibody)
[1]
  ELISA binding value: 0.511
[2]
  ELISA binding value: 1.57
[3]
  ELISA binding value: 0.49
[4]
  ELISA binding value: 0.393
[5]
  ELISA binding value: 0.612
[6]
  ELISA binding value: 1.86
[7]
  ELISA binding value: 1.68
[8]
  ELISA binding value: 2.18
[9]
  ELISA binding value: 0.603
[10]
  ELISA binding value: 2.21
[11]
  ELISA binding value: 0.79
[12]
  ELISA binding value: 2.26
[13]
  ELISA binding value: 0.448
[14]
  ELISA binding value: 0.569
[15]
  ELISA binding value: 0.891
[16]
  ELISA binding value: 2.04
[17]
  ELISA binding value: 0.545
[18]
  ELISA binding value: 0.617
[19]
  ELISA binding value: 0.503
[20]
  ELISA binding value: 1.05
[21]
  ELISA binding value: 0.5
[22]
  ELISA binding value: 1.1
[23]
  ELISA binding value: 0.538
[24]
  ELISA binding value: 0.538
[25]
  ELISA binding value: 0.546
[26]
  ELISA binding value: 0.556
[27]
  ELISA binding value: 0.461
[28]
  ELISA binding value: 0.486
[29]
  ELISA binding value: 1.59
[30]
  ELISA binding value: 0.152
[31]
  ELISA binding value: 0.599
[32]
  ELISA binding value: 0.639 and 0.505
[33]
  ELISA binding value: 0.271
[34]
  ELISA binding value: 0.527
[35]
  ELISA binding value: 0.366
[36]
  ELISA binding value: 1.58
[37]
  ELISA binding value: 0.545
[38]
  ELISA binding value: 0.689
[39]
  ELISA binding value: 0.371
